Results on 8 molecules are retold here after patent US20210346432A1 (Memorial Sloan Kettering, published 2021).

T1: mouse BCMA (mouse, UniProt O88472 1-49, limits assumed)
T1 chain (looked up): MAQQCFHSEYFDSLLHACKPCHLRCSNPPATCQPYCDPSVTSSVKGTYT

T2: A647 conjugated BCMA-Fc fusion protein (human, UniProt Q02223 1-54, A647 conjugated (site not stated))
T2 construct: Staining reagent for CAR on T cells; not shown: Fc part
T2 sequence: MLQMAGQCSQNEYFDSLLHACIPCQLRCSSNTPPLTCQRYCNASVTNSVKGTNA

B1: ET140-201 (scFv)
scFv: QPVLTQPPSASASLGASVTLTCTLSSGYSNYKVDWYQQRPGKGPRFVMRVGTGGIVGSKGDGIPDRFSVLGSGLNRYLTIKNIQEEDEGDYHCGADHGSGSNFVYVFGTGTKVTVLGSRGGGGSGGGGSGGGGSLEMAQVQLQESGPGLVKPSGTLSLTCGVSGGSISNSNWWSWVRQPPGKGLEWIGEIYHSGSTKYNPSLRSRVTISVDKSKNQFSLKLSSVTAADTAVYYCARRDNWKTPTTKIDGFDIWGQGTMVTVSS
notes: also called ET140-201 scFv; ET140-51 scFv
B2: ET140-196 (scFv)
scFv: QAVLTQPPSASGTPGQRVTISCSGSSSNIGSYTVSWYQQLPGTAPKFLIYSNNQRPSGVPDRFSGSKSGTSASLAISGLQSEDEADYYCAAWDDSLNGYVFGTGTKVTVLGSRGGGGSGGGGSGGGGSLEMAEVQLVQSGAEVKKPGESLKISCKGSGYDFTTYWIGWVRQMPGKGLEWMGIIYPGDSDTRYSPSVRGRVTISADKSINTAYLQWSSLEASDTAMYYCARMWTFSQDGWGQGTLVTVSS
notes: also called ET140-196 scFv; ET140-46 scFv
B3: ET140-174 (scFv)
scFv: SYELTQPPSASGTPGQRVTMSCSGTSSNIGSHSVNWYQQLPGTAPKLLIYTNNQRPSGVPDRFSGSKSGTSASLAISGLQSEDEADYYCAAWDGSLNGLVFGGGTKLTVLGSRGGGGSGGGGSGGGGSLEMAEVQLVQSGAEVKKPGESLKISCKGSGYSFTSYWIGWVRQMPGKGLEWMGIIYPGDSDTRYSPSFQGHVTISADKSISTAYLQWSSLKASDTAMYYCARYSGSFDNWGQGTLVTVSS
notes: also called ET140-174 scFv; ET140-24 scFv
B4: ET140-188 (scFv)
scFv: SYVLTQPPSASGTPGQRVTISCSGSSSNIGSNTVNWYQQVPGTAPKLLIYSNNQRPSGVPDRFSGSKSGASASLAISWLQSEDEADYYCAAWDDSLNGWVFGGGTKLTVLGSRGGGGSGGGGSGGGGSLEMAQMQLVQSGAEVKKPGASVKVSCKASGYTFTGYYVHWLRQAPGQGLEWMGWINPNSGGTNNAQEFQGRITMTRDTSINTAYMELSRLRSDDTAVYYCARSQWGGTYDYWGQGTLVTVSS
notes: also called ET140-188 scFv; ET140-38 scFv
B5: ET140-204 (scFv)
scFv: QSALTQPASVSASPGQSIAISCTGTSSDVGWYQQHPGKAPKLMIYEDSKRPSGVSNRFSGSKSGNTASLTISGLQAEDEADYYCSSNTRSSTLVFGGGTKLTVLGSRGGGGSGGGGSGGGGSLEMAEVQLVQSGAEMKKPGASLKLSCKASGYTFIDYYVYWMRQAPGQGLESMGWINPNSGGTNYAQKFQGRVTMTRDTSISTAYMELSRLRSDDTAMYYCARSQRDGYMDYWGQGTLVTVSS
notes: also called ET140-204 scFv; ET140-54 scFv
B6: ET140-207 (scFv)
scFv: QPVLTQPPSASASLGASVTLTCTLSSGYSNYKVDWYQQRPGKGPRFLMRVDTGGIVGSKGDGIPDRFSVSGSGLNRYLTIKNIQEEDESDYHCGADHGSGSNFVWVFGGGTKLTVLGSRGGGGSGGGGSGGGGSLEMAQVQLVQSGAEVKKPGSSVKVSCKASGGTFSSYAISWVRQAPGQGLEWMGGIIPIFSTANYAQKFQGRVTMTTDTSTSTAYMELRSLRSDDTAVYYCARQPWTWYSPYDQWGQGTLVTVSS
notes: also called ET140-207 scFv; ET140-57 scFv
B7: ET140-172 (scFv)
scFv: QSVVTQPPSVSGAPGQRVTISCSGSSSNIGARYDVQWYQQLPGTAPKLLIFGNNNRPSGVPDRFSGSKSGTSASLAITGLQAEDEADYYCQSYDSSLSASVFGGGTKLTVLGSRGGGGSGGGGSGGGGSLEMAEVQLVQSGAEVKKPGASVKVSCKASGYTFTSYYMHWVRQAPGQGLEWMGIINPSGGSTSYAQKFQGRVTMTRDTSTSTVYMELSSLRSEDTAVYYCARSQWGGVLDYWGQGTLVTVSS
notes: also called ET140-172 scFv; ET140-22 scFv
B8: BCMA-targeted 28z CAR24 (other)
chain: SYELTQPPSASGTPGQRVTMSCSGTSSNIGSHSVNWYQQLPGTAPKLLIYTNNQRPSGVPDRFSGSKSGTSASLAISGLQSEDEADYYCAAWDGSLNGLVFGGGTKLTVLGSRGGGGSGGGGSGGGGSLEMAEVQLVQSGAEVKKPGESLKISCKGSGYSFTSYWIGWVRQMPGKGLEWMGIIYPGDSDTRYSPSFQGHVTISADKSISTAYLQWSSLKASDTAMYYCARYSGSFDNWGQGTLVTVSSIEVMYPPPYLDNEKSNGTIIHVKGKHLCPSPLFPGPSKPFWVLVVVGGVLACYSLLVTVAFIIFWVRSKRSRLLHSDYMNMTPRRPGPTRKHYQPYAPPRDFAAYRSRVKFSRSADAPAYQQGQNQLYNELNLGRREEYDVLDKRRGRDPEMGGKPRRKNPQEGLYNELQKDKMAEAYSEIGMKGERRRGKGHDGLYQGLSTATKDTYDALHMQALPPR
notes: Chimeric antigen receptor on transduced human T cells; leader left out; also called BCMA-specific 28z CAR24

One experiment deals with T1, mouse BCMA. As to the kind of experiment: ELISA (OD450), single point, coats human BCMA, mouse BCMA, blank. For orientation: An ELISA detects its analyte on a solid surface through an enzyme-linked reagent.
For the molecule B1, the binding result is given as “no binding”.
In the case of B2, the binding result is reported as “no binding”.
Still for that read-out and setting: the same measure for B3: “no binding”; for B4: “no binding”.
Turning to B5, the binding result is on record as “no binding”.
For B6, the binding result is “no binding”.
With B7, the binding result is recorded as “no binding”.

The target of another experiment is T2, A647 conjugated BCMA-Fc fusion protein. As to the kind of experiment: flow cytometry, A647 conjugated BCMA-Fc on CAR-transduced human T cells. As to the method:
Human T cells (unselected (CD4 and CD8) human T cells from a healthy donor) were transduced with retrovirus in order to express each of these BCMA-targeted CARs such that the T cells expressed these BCMA-targeted 28z CARs. The cell surface expression of BCMA-targeted CARs on human T cells was determined via binding A647 conjugated BCMA-Fc fusion protein.
Regarding B8, the binding result is “binds”.
